According to the supplement of paper PMC10065799, “High-throughput profiling of sequence recognition by tyrosine kinases and SH2 domains using bacterial peptide display” (eLife, 2023):

Molecular target: Grb2 SH2 (UniProt P62993)
Assay: SH2 binding enrichment of the phosphorylated peptide, bacterial display (enrichment ratio); higher = better substrate or ligand; peptides without Tyr show the background
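For SH2 binding enrichment of the phosphorylated peptide, bacterial display in this document: peptide library displayed on the E. coli surface as eCPX fusions, selected cells deep-sequenced, score is each peptide's frequency after selection divided by its frequency in the input.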
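For phosphorylation enrichment, bacterial display in this document: 11-residue human phosphosite peptides and single-mutation variants displayed on the E. coli surface, counted by deep sequencing, each peptide's frequency after selection divided by its frequency in the unselected input library; frequency after pTyr selection over input frequency; kinase dosed for 20-30% of maximal phosphorylation in three min.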

Sequence of Grb2 SH2 (P62993 whole entry, looked up): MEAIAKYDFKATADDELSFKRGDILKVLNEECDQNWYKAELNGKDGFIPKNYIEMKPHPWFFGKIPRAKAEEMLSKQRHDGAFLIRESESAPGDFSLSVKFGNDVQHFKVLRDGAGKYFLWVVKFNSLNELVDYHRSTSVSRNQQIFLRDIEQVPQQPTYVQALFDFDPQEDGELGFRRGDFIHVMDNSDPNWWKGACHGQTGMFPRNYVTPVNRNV

Sequence | SH2 binding enrichment
GVKLTYGDAQS [SLC28A1_Y404_N409S] | 0.798
FQRLQYIKQLG [SAMHD1_Y146_R145Q] | 0.867
LVPAWYIGFLC [KCNQ2_Y237_T234P] | 0.968
NRLTDYFELLL [BBS10_Y536_P539L_YF] | 1.33
AFSTVYKGLWI [EGFR_Y727_G724S] | 0.949
TLNHQYDFTFD [CSNK1A1_Y292_YF] | 0.844
EPDSLYGCGGG [ATM_Y2019] | 0.977
RASGIYYVPKG [APBB1IP_Y340] | 1.1
EGLKVYINGTL [ADGRD1_Y183_V184I] | 1.32
QFKDKYLAKHN [CASK_Y712_YF] | 0.83
RLLRGYNQSAF [HLA-C_Y137_D138N_YF] | 1.14
RSIGEYDVLRG [PRKDC_Y2936] | 0.662
LAARYYNWVSF [FLT4_Y1231] | 6.96
NFAKMYCNPDA [KNL1_Y489_YF] | 0.789
IDSTPYGQWYE [RPS8_Y109_R110G] | 0.703
GGFTCYCDGKK [PROS1_Y266_YF] | 0.779
LVKDPYVMFPQ [PLEKHG2_Y489_P484L] | 0.778
KPLMPSMRYSR [SMARCE1_Y73_Y73S] | 0.717
VSKGGYFSVNL [C3orf33_Y164] | 0.872
AAILGYCRGEA [XPC_Y669] | 0.821
YGAHNYHPLPV [OAT_Y55] | 0.866
KVKPIYFHTRG [AR_Y916_Q920R] | 2.2
CTTFHYNYMCN [TP53_Y234_I232F] | 1.17
FRAPGYREVVI [TNS2_Y673_YF] | 0.942
LLREWYMIISR [HUWE1_Y4066] | 1.71
KLFIEYPTGSG [IRF2BPL_Y423] | 0.82
CTNELYMMMRD [FGFR1_Y730] | 0.633
ARGMEYLAEQK [MST1R_Y1198_G1195S] | 0.741
RGVTRYIYNRE [HLA-DQB1_Y62_Y58G] | 0.802

Molecular target: SHP2-C SH2
Assay: as above

Sequence | SH2 binding enrichment
GVKLTYGDAQS [SLC28A1_Y404_N409S] | 0.646
FQRLQYIKQLG [SAMHD1_Y146_R145Q] | 0.666
LVPAWYIGFLC [KCNQ2_Y237_T234P] | 0.844
NRLTDYFELLL [BBS10_Y536_P539L_YF] | 1.29
AFSTVYKGLWI [EGFR_Y727_G724S] | 1.5
TLNHQYDFTFD [CSNK1A1_Y292_YF] | 0.701
EPDSLYGCGGG [ATM_Y2019] | 0.854
RASGIYYVPKG [APBB1IP_Y340] | 0.767
EGLKVYINGTL [ADGRD1_Y183_V184I] | 0.659
QFKDKYLAKHN [CASK_Y712_YF] | 1.3
RLLRGYNQSAF [HLA-C_Y137_D138N_YF] | 0.705
RSIGEYDVLRG [PRKDC_Y2936] | 0.587
LAARYYNWVSF [FLT4_Y1231] | 1.38
NFAKMYCNPDA [KNL1_Y489_YF] | 0.633
IDSTPYGQWYE [RPS8_Y109_R110G] | 0.607
GGFTCYCDGKK [PROS1_Y266_YF] | 0.591
LVKDPYVMFPQ [PLEKHG2_Y489_P484L] | 0.459
KPLMPSMRYSR [SMARCE1_Y73_Y73S] | 0.499
VSKGGYFSVNL [C3orf33_Y164] | 1.07
AAILGYCRGEA [XPC_Y669] | 0.683
YGAHNYHPLPV [OAT_Y55] | 0.827
KVKPIYFHTRG [AR_Y916_Q920R] | 2.07
CTTFHYNYMCN [TP53_Y234_I232F] | 1.82
FRAPGYREVVI [TNS2_Y673_YF] | 1.13
LLREWYMIISR [HUWE1_Y4066] | 1.5
KLFIEYPTGSG [IRF2BPL_Y423] | 1
CTNELYMMMRD [FGFR1_Y730] | 0.502
ARGMEYLAEQK [MST1R_Y1198_G1195S] | 0.603
RGVTRYIYNRE [HLA-DQB1_Y62_Y58G] | 0.756

Molecular target: c-Src SH2
Assay: as above

Sequence | SH2 binding enrichment
GVKLTYGDAQS [SLC28A1_Y404_N409S] | 0.467
FQRLQYIKQLG [SAMHD1_Y146_R145Q] | 0.422
LVPAWYIGFLC [KCNQ2_Y237_T234P] | 0.543
NRLTDYFELLL [BBS10_Y536_P539L_YF] | 0.834
AFSTVYKGLWI [EGFR_Y727_G724S] | 0.653
TLNHQYDFTFD [CSNK1A1_Y292_YF] | 8.5
EPDSLYGCGGG [ATM_Y2019] | 0.619
RASGIYYVPKG [APBB1IP_Y340] | 0.955
EGLKVYINGTL [ADGRD1_Y183_V184I] | 0.381
QFKDKYLAKHN [CASK_Y712_YF] | 0.914
RLLRGYNQSAF [HLA-C_Y137_D138N_YF] | 0.976
RSIGEYDVLRG [PRKDC_Y2936] | 1.65
LAARYYNWVSF [FLT4_Y1231] | 2.3
NFAKMYCNPDA [KNL1_Y489_YF] | 2.03
IDSTPYGQWYE [RPS8_Y109_R110G] | 0.849
GGFTCYCDGKK [PROS1_Y266_YF] | 0.409
LVKDPYVMFPQ [PLEKHG2_Y489_P484L] | 1.98
KPLMPSMRYSR [SMARCE1_Y73_Y73S] | 0.441
VSKGGYFSVNL [C3orf33_Y164] | 2.06
AAILGYCRGEA [XPC_Y669] | 0.57
YGAHNYHPLPV [OAT_Y55] | 1.01
KVKPIYFHTRG [AR_Y916_Q920R] | 1.84
CTTFHYNYMCN [TP53_Y234_I232F] | 4.4
FRAPGYREVVI [TNS2_Y673_YF] | 0.667
LLREWYMIISR [HUWE1_Y4066] | 1.37
KLFIEYPTGSG [IRF2BPL_Y423] | 0.505
CTNELYMMMRD [FGFR1_Y730] | 0.427
ARGMEYLAEQK [MST1R_Y1198_G1195S] | 0.524
RGVTRYIYNRE [HLA-DQB1_Y62_Y58G] | 0.527

Molecular target: FGFR1 (UniProt P11362)
Sequence (P11362 whole entry, looked up): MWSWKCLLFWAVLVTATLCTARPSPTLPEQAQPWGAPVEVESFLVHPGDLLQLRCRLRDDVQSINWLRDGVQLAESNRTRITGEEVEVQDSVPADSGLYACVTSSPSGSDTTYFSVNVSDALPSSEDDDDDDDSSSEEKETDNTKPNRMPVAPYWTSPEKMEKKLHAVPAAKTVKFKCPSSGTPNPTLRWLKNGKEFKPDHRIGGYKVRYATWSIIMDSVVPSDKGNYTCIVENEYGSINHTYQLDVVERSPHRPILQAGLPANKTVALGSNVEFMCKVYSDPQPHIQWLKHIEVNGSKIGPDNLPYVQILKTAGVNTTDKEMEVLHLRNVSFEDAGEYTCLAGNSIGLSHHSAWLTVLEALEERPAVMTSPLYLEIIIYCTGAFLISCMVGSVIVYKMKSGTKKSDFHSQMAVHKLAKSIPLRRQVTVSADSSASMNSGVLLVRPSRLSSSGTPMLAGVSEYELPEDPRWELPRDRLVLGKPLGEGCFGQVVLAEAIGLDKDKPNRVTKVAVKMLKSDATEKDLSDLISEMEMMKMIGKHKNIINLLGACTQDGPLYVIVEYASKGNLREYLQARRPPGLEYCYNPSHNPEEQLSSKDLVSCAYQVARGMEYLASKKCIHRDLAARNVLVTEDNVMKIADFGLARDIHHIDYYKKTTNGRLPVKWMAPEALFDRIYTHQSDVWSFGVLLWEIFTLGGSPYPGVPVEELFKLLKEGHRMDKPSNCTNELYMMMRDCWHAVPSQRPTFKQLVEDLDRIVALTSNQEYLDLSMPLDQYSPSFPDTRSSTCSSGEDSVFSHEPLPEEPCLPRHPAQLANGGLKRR
Assay: phosphorylation enrichment, bacterial display (enrichment ratio); higher = better substrate or ligand; peptides without Tyr show the background

Sequence | phosphorylation enrichment
GVKLTYGDAQS [SLC28A1_Y404_N409S] | 0.429
FQRLQYIKQLG [SAMHD1_Y146_R145Q] | 0.451
LVPAWYIGFLC [KCNQ2_Y237_T234P] | 0.502
NRLTDYFELLL [BBS10_Y536_P539L_YF] | 7.17
AFSTVYKGLWI [EGFR_Y727_G724S] | 0.504
TLNHQYDFTFD [CSNK1A1_Y292_YF] | 0.57
EPDSLYGCGGG [ATM_Y2019] | 0.619
RASGIYYVPKG [APBB1IP_Y340] | 5.75
EGLKVYINGTL [ADGRD1_Y183_V184I] | 0.554
QFKDKYLAKHN [CASK_Y712_YF] | 0.383
RLLRGYNQSAF [HLA-C_Y137_D138N_YF] | 0.665
RSIGEYDVLRG [PRKDC_Y2936] | 0.36
LAARYYNWVSF [FLT4_Y1231] | 4.29
NFAKMYCNPDA [KNL1_Y489_YF] | 0.569
IDSTPYGQWYE [RPS8_Y109_R110G] | 0.741
GGFTCYCDGKK [PROS1_Y266_YF] | 0.457
LVKDPYVMFPQ [PLEKHG2_Y489_P484L] | 7.45
KPLMPSMRYSR [SMARCE1_Y73_Y73S] | 0.405
VSKGGYFSVNL [C3orf33_Y164] | 0.428
AAILGYCRGEA [XPC_Y669] | 0.541
YGAHNYHPLPV [OAT_Y55] | 9.73
KVKPIYFHTRG [AR_Y916_Q920R] | 0.598
CTTFHYNYMCN [TP53_Y234_I232F] | 0.696
FRAPGYREVVI [TNS2_Y673_YF] | 0.502
LLREWYMIISR [HUWE1_Y4066] | 0.708
KLFIEYPTGSG [IRF2BPL_Y423] | 0.412
CTNELYMMMRD [FGFR1_Y730] | 0.935
ARGMEYLAEQK [MST1R_Y1198_G1195S] | 0.39
RGVTRYIYNRE [HLA-DQB1_Y62_Y58G] | 0.809
